From article PMC9332313, “Folding and Binding Mechanisms of the SH2 Domain from Crkl” (Biomolecules, 2022)

Columns and labels:
[1] = biological target: dansylated Pax_(112–123) peptide (Dans-GEEEHV-pY-SFPNK); experiment: stopped-flow fluorescence displacement kinetics (FRET); complex of 2 µM H60A mutant and 20 µM dansyl-Pax112-123 mixed with excess non-dansylated Pax112-123 (40 μM); 283 K; pH 5.5
[2] = biological target: dansylated Pax_(112–123) peptide (Dans-GEEEHV-pY-SFPNK); experiment: stopped-flow fluorescence displacement kinetics (FRET); complex of 2 µM H60A mutant and 20 µM dansyl-Pax112-123 mixed with excess non-dansylated Pax112-123 (40 μM); 283 K; pH 6.8
[3] = biological target: dansylated Pax_(112–123) peptide (Dans-GEEEHV-pY-SFPNK); experiment: stopped-flow fluorescence displacement kinetics (FRET); complex of 2 µM H60A mutant and 20 µM dansyl-Pax112-123 mixed with excess non-dansylated Pax112-123 (40 μM); 283 K; pH 7.5
His60 = His60 (UniProt position 60, NSRVSHYIINS); experiment: kinetics (stopped-flow fluorescence binding and displacement); settings: 283 K; 0.5 M NaCl plus 50 mM buffer; 50 mM sodium-acetate pH 5.0 and 5.5; 50 mM BisTRIS pH 6.0 and 6.8; 50 mM sodium-HEPES pH 7.5; 50 mM TrisHCl pH 8.0, 8.5 and 9.0; Binding reaction with dansyl-Pax112-123 phosphopeptide. The pKa comes from both association and dissociation rate constants, so no free or bound state is specified.

koff [1]	koff [2]	koff [3]	Substance	pKa (His60)
212 s⁻¹	152 s⁻¹	237 s⁻¹	SH2 domain of Crkl protein (residues 1-111), H60A variant (from UniProt P46109 1-111) (domain or fragment)	
			Crk-like protein (Crkl) SH2 domain (Homo sapiens (inferred; not stated in the article))	7.1 ± 0.2
